Experimental findings from patent publication US20220017615A1 are described below.

The target of assay [1] is SIRPα protein with hFc tag (SIRPα-hFc) (UniProt P78324). As to the kind of experiment: ELISA on coated SIRPα-hFc 1 µg/mL; control 0.00001 µg/ml.
Assay [2] shares this target. As to the kind of experiment: ELISA on coated SIRPα-hFc 1 µg/mL; control 0.008 µg/ml.
Assay [3] shares this target. Nature of the assay: ELISA on coated SIRPα-hFc 1 µg/mL; control 1 µg/ml.
The target is the same in assay [4]. Nature of the assay: ELISA on coated SIRPα-hFc 1 µg/mL; control 0.04 µg/ml.
The target is the same in assay [5]. Nature of the assay: ELISA on coated SIRPα-hFc 1 µg/mL; control 0.0016 µg/ml.
For assay [6] the target is unchanged. Nature of the assay: ELISA on coated SIRPα-hFc 1 µg/mL; control 0.0003 µg/ml.
Assay [7] shares this target. As to the kind of experiment: ELISA on coated SIRPα-hFc 1 µg/mL; control 0.2 µg/ml.
Assay [8] shares this target. As to the kind of experiment: ELISA on coated SIRPα-hFc 1 µg/mL; control 0.0001 µg/ml.
The target in assay [9] is human CD47, full length, on transfected cells (human) (UniProt Q08722). Nature of the assay: FACS, HEK293 clone 293F-hCD47 1E8.
For assay [10] the target is unchanged. Nature of the assay: FACS, HEK293 clone 293F-hCD47 2E2.
For assay [11] the target is unchanged. As to the kind of experiment: FACS, HEK293 clone 293F-hCD47 1C2.
The target is the same in assay [12]. Nature of the assay: FACS, HEK293 clone 293F-hCD47 1B8.
For assay [13] the target is unchanged. As to the kind of experiment: FACS, HEK293 clone 293F-hCD47 1F8.
Assay [14] has the same target. Nature of the assay: FACS, HEK293 clone 293F-hCD47 1B4.
The target is the same in assay [15]. Nature of the assay: FACS, HEK293 clone 293F-hCD47 1B5.
The target is the same in assay [16]. As to the kind of experiment: FACS, HEK293 clone 293F-hCD47 1F6.
For assay [17] the target is unchanged. As to the kind of experiment: FACS, HEK293 clone 293F-hCD47 1F10.
Assay [18] has the same target. As to the kind of experiment: FACS, HEK293 clone 293F-hCD47 1A8.
Assay [19] shares this target. Nature of the assay: FACS, HEK293 clone 293F-hCD47 1C4.
Assay [20] shares this target. As to the kind of experiment: FACS, HEK293 clone 293F-hCD47 1B11.
The target is the same in assay [21]. Nature of the assay: FACS, HEK293 clone 293F-hCD47 1C8.
For assay [22] the target is unchanged. As to the kind of experiment: FACS, HEK293 clone 293F-hCD47 1F11.
For assay [23] the target is unchanged. Nature of the assay: FACS, HEK293 clone 293F-hCD47 1D10.
The target is the same in assay [24]. Nature of the assay: FACS, HEK293 clone 293F-hCD47 1B6.

SIRPα protein with hFc tag (SIRPα-hFc), sequence (P78324 31-370): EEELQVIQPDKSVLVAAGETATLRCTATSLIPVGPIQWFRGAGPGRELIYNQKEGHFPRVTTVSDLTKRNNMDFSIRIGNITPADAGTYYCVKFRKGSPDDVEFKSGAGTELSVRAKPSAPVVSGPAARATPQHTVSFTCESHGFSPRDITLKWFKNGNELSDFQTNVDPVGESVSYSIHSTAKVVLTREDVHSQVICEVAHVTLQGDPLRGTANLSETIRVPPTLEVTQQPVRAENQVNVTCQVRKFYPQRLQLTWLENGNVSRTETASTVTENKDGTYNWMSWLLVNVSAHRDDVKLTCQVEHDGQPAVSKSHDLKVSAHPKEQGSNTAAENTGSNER

Take “Control protein (non-CD47 fusion protein)”: the OD450 nm in assay [1] amounted to 0.06; in assay [2], 0.06; in [3], 0.19; in assay [4], 0.1; in assay [5] it was 0.08; in assay [6] it was 0.07. For the same substance, the results for the OD450 nm in [7] and in assay [8] were 0.11 and 0.07, respectively.

Consider IgG subtype control (antibody), for which the Mean fluorescence intensity is 2.79 in assay [9]; 2.79 in assay [10]; 2.47 in assay [11]; 3.11 in assay [12]; 2.66 in assay [13]; 2.56 in assay [14]. For the same substance, the Mean fluorescence intensity in assay [15] stood at 2.72; in [16], 2.94; in assay [17], 3.64; in [18], 3.2; in [19], 3.84; in [20], 2.87. The Mean fluorescence intensity in assay [21] was 2.15; in assay [22], 3.73; in assay [23] it was 3.19; in assay [24] it was 3.22. The Positive cells (%) in [9] is 1.29%; in assay [10] it was 2.42%; in assay [11] it was 1.85%; in assay [12], 3.08%; in [13], 3.13%; in assay [14] it was 1.6%. Moreover, the Positive cells (%) was found to be 0.85% in assay [15]; 2.35% in [16]; 3.85% in [17]; 2.19% in assay [18]; 2.55% in assay [19]; 4.7% in assay [20]. The Positive cells (%) stood at 0.81% in assay [21], 3.78% in [22], 2.38% in [23] and 5.7% in assay [24].
